For assay [1], the target named is T1, human IL-4 (recombinant E. coli-expressed) (human, UniProt P05112 25-153).
T1 sequence (looked up): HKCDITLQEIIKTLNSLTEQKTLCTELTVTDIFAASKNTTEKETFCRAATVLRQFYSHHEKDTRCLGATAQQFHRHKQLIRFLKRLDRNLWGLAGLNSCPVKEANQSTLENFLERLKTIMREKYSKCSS
Description: Biacore T100 SPR, Protein A capture (CM5), human IL4 analyte, 1:1 fit. The protocol:
Protein A was immobilised on a CM5 chip by primary amine coupling; this surface was used as a capture surface for the antibody molecules to be tested.
All binding curves were double referenced with a 0 nM injection (i.e. buffer alone). Regeneration of the Protein A surface was with 50 mM NaOH. The assay was run at 25° C. using HBS-EP as running buffer. The data was fitted to 1:1 model inherent to the Biacore T100 analysis software.

The target in assay [2] is T1, human IL-4 (recombinant E. …). Described as above. The protocol: Purified mAbs and mAbdAb constructs were tested in a BIAcore assay to determine whether the mutation of position 89 had any effect on the binding of the dAb to IL-4.
Protein A was immobilised on a CM5 chip by primary amine coupling; this surface was used as a capture surface for the antibody molecules to be tested. […] Regeneration of the […] surface was achieved using 50 mM NaOH. The assay was run at 25° C. using HBS-EP as running buffer. The data was fitted to 1:1 model inherent to the Biacore T100 analysis software.
This is another data set of the same source.

Assay [3] addresses T2, human IL-13 (recombinant E. coli-expressed) (human, UniProt P35225 35-146).
T2 construct: also called hIL-13
Description: Biacore T100 SPR, mAb (supernatant) captured on anti-human IgG, IL13 analyte, 1:1 fit. From the text:
Table 1 details the overall affinities (equilibrium dissociation constant KD) for the selected constructs from the ProteOn screen and the T100 run

Read-outs that look alike come from different tables or passages of the source.

T2 sequence (P35225 other isoform, or with tags, fused parts or gaps limits assumed): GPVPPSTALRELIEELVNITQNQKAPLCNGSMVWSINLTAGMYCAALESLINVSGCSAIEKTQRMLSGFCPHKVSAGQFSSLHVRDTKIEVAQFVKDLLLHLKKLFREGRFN

B1: BPC1090 (bispecific antibody, human IgG1, kappa)
heavy: not shown
light: DIVMTQSPLSLPVTPGEPASISCRSSQNIVHINGNTYLEWYLQKPGQSPRLLIYKISDRFSGVPDRFSGSGSGTDFTLKISRVEADDVGIYYCFQGSHVPWTFGQGTKLEIKRTVAAPSVFIFPPSDEQLKSGTASVVCLLNNFYPREAKVQWKVDNALQSGNSQESVTEQDSKDSTYSLSSTLTLSKADYEKHKVYACEVTHQGLSSPVTKSFNRGEC
notes: mAbdAb; dAb DOM9-155-154 with Kabat 89 G; also called 829H-(TVAAPS)2GS-154 (89G)
Take B1: in assay [1], the Kd (usually the free concentration of one partner at which half of the binding sites on the other are occupied at equilibrium, for simple one-to-one binding) was determined as 0.096 nM; the koff (as a rule, a measure of how fast the partners let go of each other) came to 0.000416 s⁻¹; the kon (as a rule, the rate constant with which the complex forms) turned out to be 4.34e+06 M⁻¹ s⁻¹. In assay [2], the Kd came to 0.152 nM, the koff was 0.000455 s⁻¹ and the kon came to 3e+06 M⁻¹ s⁻¹.

B2: BPC1111 (bispecific antibody, human IgG1, kappa)
heavy: not shown
light: DIVMTQSPLSLPVTPGEPASISCRSSQNIVHINGNTYLEWYLQKPGQSPRLLIYKISDRFSGVPDRFSGSGSGTDFTLKISRVEADDVGIYYCFQGSHVPWTFGQGTKLEIKRTVAAPSVFIFPPSDEQLKSGTASVVCLLNNFYPREAKVQWKVDNALQSGNSQESVTEQDSKDSTYSLSSTLTLSKADYEKHKVYACEVTHQGLSSPVTKSFNRGEC
notes: mAbdAb; dAb Kabat 89 E; also called 829H-(TVAAPS)2GS-154 (89E)
B2: in assay [1], the Kd came to 0.037 nM, the koff was determined as 0.000111 s⁻¹ and the kon was determined as 2.98e+06 M⁻¹ s⁻¹. In assay [2], the Kd was 0.031 nM, the koff is 0.000104 s⁻¹ and the kon stood at 3.37e+06 M⁻¹ s⁻¹.

B3: BPC1109 (bispecific antibody, human IgG1, kappa)
heavy: not shown
light: DIVMTQSPLSLPVTPGEPASISCRSSQNIVHINGNTYLEWYLQKPGQSPRLLIYKISDRFSGVPDRFSGSGSGTDFTLKISRVEADDVGIYYCFQGSHVPWTFGQGTKLEIKRTVAAPSVFIFPPSDEQLKSGTASVVCLLNNFYPREAKVQWKVDNALQSGNSQESVTEQDSKDSTYSLSSTLTLSKADYEKHKVYACEVTHQGLSSPVTKSFNRGEC
notes: mAbdAb; dAb Kabat 89 R; also called 829H-(TVAAPS)2GS-154 (89R)
Consider B3, for which, in assay [1], the dissociation constant Kd amounted to 147 nM, the koff was determined as 0.177 s⁻¹ and the kon was 1.2e+06 M⁻¹ s⁻¹.

B4: BPC1116 (bispecific antibody, human IgG1, kappa)
heavy: not shown
light: DIVMTQSPLSLPVTPGEPASISCRSSQNIVHINGNTYLEWYLQKPGQSPRLLIYKISDRFSGVPDRFSGSGSGTDFTLKISRVEADDVGIYYCFQGSHVPWTFGQGTKLEIKRTVAAPSVFIFPPSDEQLKSGTASVVCLLNNFYPREAKVQWKVDNALQSGNSQESVTEQDSKDSTYSLSSTLTLSKADYEKHKVYACEVTHQGLSSPVTKSFNRGEC
notes: mAbdAb; dAb Kabat 89 V; also called 829H-(TVAAPS)2GS-154 (89V)
For the molecule B4, in assay [1], the Kd is 0.402 nM, the koff turned out to be 0.00274 s⁻¹ and the kon is 6.82e+06 M⁻¹ s⁻¹.

B5: BPC1117 (bispecific antibody, human IgG1, kappa)
heavy: not shown
light: DIVMTQSPLSLPVTPGEPASISCRSSQNIVHINGNTYLEWYLQKPGQSPRLLIYKISDRFSGVPDRFSGSGSGTDFTLKISRVEADDVGIYYCFQGSHVPWTFGQGTKLEIKRTVAAPSVFIFPPSDEQLKSGTASVVCLLNNFYPREAKVQWKVDNALQSGNSQESVTEQDSKDSTYSLSSTLTLSKADYEKHKVYACEVTHQGLSSPVTKSFNRGEC
notes: mAbdAb; dAb Kabat 89 I; also called 829H-(TVAAPS)2GS-154 (89I)
B5: in assay [1], the Kd was determined as 0.231 nM, the koff was 0.000913 s⁻¹ and the kon was 3.95e+06 M⁻¹ s⁻¹.

B6: BPC1118 (bispecific antibody, human IgG1, kappa)
heavy: not shown
light: DIVMTQSPLSLPVTPGEPASISCRSSQNIVHINGNTYLEWYLQKPGQSPRLLIYKISDRFSGVPDRFSGSGSGTDFTLKISRVEADDVGIYYCFQGSHVPWTFGQGTKLEIKRTVAAPSVFIFPPSDEQLKSGTASVVCLLNNFYPREAKVQWKVDNALQSGNSQESVTEQDSKDSTYSLSSTLTLSKADYEKHKVYACEVTHQGLSSPVTKSFNRGEC
notes: mAbdAb; dAb Kabat 89 F; also called 829H-(TVAAPS)2GS-154 (89F)
In the case of B6, in assay [1], the Kd came to 0.405 nM, the koff worked out at 0.00258 s⁻¹ and the kon came out at 6.39e+06 M⁻¹ s⁻¹.

B7: BPC1108 (bispecific antibody, human IgG1, kappa)
heavy: not shown
light: DIVMTQSPLSLPVTPGEPASISCRSSQNIVHINGNTYLEWYLQKPGQSPRLLIYKISDRFSGVPDRFSGSGSGTDFTLKISRVEADDVGIYYCFQGSHVPWTFGQGTKLEIKRTVAAPSVFIFPPSDEQLKSGTASVVCLLNNFYPREAKVQWKVDNALQSGNSQESVTEQDSKDSTYSLSSTLTLSKADYEKHKVYACEVTHQGLSSPVTKSFNRGEC
notes: mAbdAb; dAb Kabat 89 C; also called 829H-(TVAAPS)2GS-154 (89C)
Take B7: in assay [1], the equilibrium dissociation constant (Kd) was found to be 0.281 nM, the koff amounted to 0.00123 s⁻¹ and the kon came out at 4.38e+06 M⁻¹ s⁻¹.

B8: BPC1091 (bispecific antibody, human IgG1, kappa)
heavy: not shown
light: DIVMTQSPLSLPVTPGEPASISCRSSQNIVHINGNTYLEWYLQKPGQSPRLLIYKISDRFSGVPDRFSGSGSGTDFTLKISRVEADDVGIYYCFQGSHVPWTFGQGTKLEIKRTVAAPSVFIFPPSDEQLKSGTASVVCLLNNFYPREAKVQWKVDNALQSGNSQESVTEQDSKDSTYSLSSTLTLSKADYEKHKVYACEVTHQGLSSPVTKSFNRGEC
notes: mAbdAb; dAb Kabat 89 S; also called 829H-(TVAAPS)2GS-154 (89S)
Take B8: in assay [1], the Kd is 0.168 nM, the off-rate constant (koff) stood at 0.00102 s⁻¹ and the kon worked out at 6.05e+06 M⁻¹ s⁻¹. Moreover, in assay [2], the Kd stood at 0.244 nM, the dissociation rate constant (koff) stood at 0.000966 s⁻¹ and the kon amounted to 3.96e+06 M⁻¹ s⁻¹.

B9: BPC1110 (bispecific antibody, human IgG1, kappa)
heavy: not shown
light: DIVMTQSPLSLPVTPGEPASISCRSSQNIVHINGNTYLEWYLQKPGQSPRLLIYKISDRFSGVPDRFSGSGSGTDFTLKISRVEADDVGIYYCFQGSHVPWTFGQGTKLEIKRTVAAPSVFIFPPSDEQLKSGTASVVCLLNNFYPREAKVQWKVDNALQSGNSQESVTEQDSKDSTYSLSSTLTLSKADYEKHKVYACEVTHQGLSSPVTKSFNRGEC
notes: mAbdAb; dAb Kabat 89 W; also called 829H-(TVAAPS)2GS-154 (89W)
Regarding B9, in assay [1], the Kd was 1.63 nM, the koff was 0.00173 s⁻¹ and the kon was found to be 1.07e+06 M⁻¹ s⁻¹.

B10: BPC1095 (bispecific antibody, human IgG1, kappa)
heavy: not shown
light: DIVMTQSPLSLPVTPGEPASISCRSSQNIVHINGNTYLEWYLQKPGQSPRLLIYKISDRFSGVPDRFSGSGSGTDFTLKISRVEADDVGIYYCFQGSHVPWTFGQGTKLEIKRTVAAPSVFIFPPSDEQLKSGTASVVCLLNNFYPREAKVQWKVDNALQSGNSQESVTEQDSKDSTYSLSSTLTLSKADYEKHKVYACEVTHQGLSSPVTKSFNRGEC
notes: mAbdAb; dAb Kabat 89 T; also called 829H-(TVAAPS)2GS-154 (89T)
Take B10: in assay [1], the Kd stood at 4.69 nM, the off-rate (koff) was 0.0318 s⁻¹ and the association rate constant (kon) worked out at 6.78e+06 M⁻¹ s⁻¹. Moreover, in assay [2], the Kd was 5.76 nM, the koff was 0.0144 s⁻¹ and the kon amounted to 2.5e+06 M⁻¹ s⁻¹.

B11: BPC1094 (bispecific antibody, human IgG1, kappa)
heavy: not shown
light: DIVMTQSPLSLPVTPGEPASISCRSSQNIVHINGNTYLEWYLQKPGQSPRLLIYKISDRFSGVPDRFSGSGSGTDFTLKISRVEADDVGIYYCFQGSHVPWTFGQGTKLEIKRTVAAPSVFIFPPSDEQLKSGTASVVCLLNNFYPREAKVQWKVDNALQSGNSQESVTEQDSKDSTYSLSSTLTLSKADYEKHKVYACEVTHQGLSSPVTKSFNRGEC
notes: mAbdAb; dAb Kabat 89 A; also called 829H-(TVAAPS)2GS-154 (89A)
For the molecule B11, in assay [1], the dissociation constant (Kd) stood at 2.08 nM, the koff came out at 0.00304 s⁻¹ and the kon is 1.46e+06 M⁻¹ s⁻¹. Also, in assay [2], the Kd is 1.95 nM, the koff was found to be 0.00373 s⁻¹ and the kon was determined as 1.91e+06 M⁻¹ s⁻¹.

B12: BPC1092 (bispecific antibody, human IgG1, kappa)
heavy: not shown
light: DIVMTQSPLSLPVTPGEPASISCRSSQNIVHINGNTYLEWYLQKPGQSPRLLIYKISDRFSGVPDRFSGSGSGTDFTLKISRVEADDVGIYYCFQGSHVPWTFGQGTKLEIKRTVAAPSVFIFPPSDEQLKSGTASVVCLLNNFYPREAKVQWKVDNALQSGNSQESVTEQDSKDSTYSLSSTLTLSKADYEKHKVYACEVTHQGLSSPVTKSFNRGEC
notes: mAbdAb; dAb Kabat 89 H; also called 829H-(TVAAPS)2GS-154 (89H)
Take B12: in assay [1], the Kd is 1.71 nM, the off-rate (koff) was 0.00389 s⁻¹ and the on-rate (kon) was 2.27e+06 M⁻¹ s⁻¹. Further, in assay [2], the Kd came out at 1.79 nM, the koff came to 0.00534 s⁻¹ and the kon was 2.98e+06 M⁻¹ s⁻¹.

B13: BPC1114 (bispecific antibody, human IgG1, kappa)
heavy: not shown
light: DIVMTQSPLSLPVTPGEPASISCRSSQNIVHINGNTYLEWYLQKPGQSPRLLIYKISDRFSGVPDRFSGSGSGTDFTLKISRVEADDVGIYYCFQGSHVPWTFGQGTKLEIKRTVAAPSVFIFPPSDEQLKSGTASVVCLLNNFYPREAKVQWKVDNALQSGNSQESVTEQDSKDSTYSLSSTLTLSKADYEKHKVYACEVTHQGLSSPVTKSFNRGEC
notes: mAbdAb; dAb Kabat 89 N; also called 829H-(TVAAPS)2GS-154 (89N)
Turning to B13, in assay [1], the Kd came out at 0.656 nM, the koff is 0.00255 s⁻¹ and the kon turned out to be 3.89e+06 M⁻¹ s⁻¹.

B14: A1H100A AlaL1 (antibody, human IgG1, kappa, V domains shown)
VH: QVQLVQSGAEVKKPGSSVKVSCKASGFYIKDTYMHWVRQAPGQGLEWMGTIDPANGNTKYVPKFQGRVTITADESTSTAYMELSSLRSEDTAVYYCARSIYDDYAYDDYYAMDYWGQGTLVTVSS
VL: DIVMTQSPLSLPVTPGEPASISCRSSQNIVHINGNTYLEWYLQKPGQSPRLLIYKISDRFSGVPDRFSGSGSGTDFTLKISRVEADDVGIYYCFQGSHVPWTFGQGTKLEIKR
notes: CDRH3 variant of A1L1
Turning to B14, in assay [3], the equilibrium dissociation constant (Kd) worked out at 0.172 nM.

B15: A1S95TrpL1 (antibody, human IgG1, kappa, V domains shown)
VH: QVQLVQSGAEVKKPGSSVKVSCKASGFYIKDTYMHWVRQAPGQGLEWMGTIDPANGNTKYVPKFQGRVTITADESTSTAYMELSSLRSEDTAVYYCARWIYDDYHYDDYYAMDYWGQGTLVTVSS
VL: DIVMTQSPLSLPVTPGEPASISCRSSQNIVHINGNTYLEWYLQKPGQSPRLLIYKISDRFSGVPDRFSGSGSGTDFTLKISRVEADDVGIYYCFQGSHVPWTFGQGTKLEIKR
notes: CDRH3 variant of A1L1
In the case of B15, the Kd in assay [3] turned out to be 0.216 nM.
